Assay results: article PMC8035640
Values belong to the binder of their own block, whether it stands above or below them.

Legend:
PilR-His = target: T1, PilR-His (Lysobacter enzymogenes OH11, UniProt A0A5P2TY02 1-471); experiment: EMSA
T1 sequence: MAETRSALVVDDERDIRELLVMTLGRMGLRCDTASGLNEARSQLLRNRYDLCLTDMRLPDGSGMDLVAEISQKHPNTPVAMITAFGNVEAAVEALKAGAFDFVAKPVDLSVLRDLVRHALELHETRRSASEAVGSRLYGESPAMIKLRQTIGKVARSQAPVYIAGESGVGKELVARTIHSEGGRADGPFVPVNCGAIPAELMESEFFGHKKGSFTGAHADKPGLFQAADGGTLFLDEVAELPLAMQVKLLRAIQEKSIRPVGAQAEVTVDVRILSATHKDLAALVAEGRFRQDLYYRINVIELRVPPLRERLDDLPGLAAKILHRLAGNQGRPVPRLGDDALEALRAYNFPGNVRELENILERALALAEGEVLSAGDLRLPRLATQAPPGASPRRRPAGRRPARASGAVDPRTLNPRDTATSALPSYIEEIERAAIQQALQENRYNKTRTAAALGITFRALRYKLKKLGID

[1] = target: LchD^GGDEV-His, soluble cytoplasmic fragment of LchD (Lysobacter enzymogenes OH11); experiment: MST

B1: PLchD-2b (dsDNA)
DNA 1: CCTGCACCGGAATGCAGCCCCCTTGGGCTATGCTCGGCACAGCAGACTGG
DNA 2: CCAGTCTGCTGTGCCGAGCATAGCCCAAGGGGGCTGCATTCCGGTGCAGG
binding result (PilR-His): no binding

Kd [1]: 490 nM
B2: Clp-glutathione S-transferase (GST) (natural protein)
chain: MSANPVAPLTALRRTNSPLLPDGATIERFLAHCHRRRYPSRTDVFRPGDPASTLYYVVSGSVSIITEEEDGRELVLGYFGPGEFVGELGLFIESDHREVILRTRSTCELAEIGHERLYDLLLTRLSLDAPKLLYAIGAQISRRLLDTSRKAGRLAFLDVTDRIVRALHDLAKEPEAMSHPQGTQLRVSRQELSRLVGCSREMAGRVLKKLQADGKLHARGKTVVLYGTR

B3: PLchD-2c (dsDNA)
DNA 1: TGACCGGAAGGGGCATGGGGACACCCTGGCGTGGAAGCTGGCGCGGCTGG
DNA 2: CCAGCCGCGCCAGCTTCCACGCCAGGGTGTCCCCATGCCCCTTCCGGTCA
binding result (PilR-His): no binding
